From US20200407436A1 (published 2020)

Key:
[1] = target: endogenously produced TGF-beta in the RPTEC and HRF co-culture system; assay: cell-based or functional assay
mature human TGF-beta 1 = mature human TGF-beta 1 (human, UniProt P01137 279-390); assay: cell-based or functional assay
mature human TGF-beta 2 [2] = target: T1, mature human TGF-beta 2 (human, UniProt P61812 303-414); assay: cell-based or functional assay
T1 sequence: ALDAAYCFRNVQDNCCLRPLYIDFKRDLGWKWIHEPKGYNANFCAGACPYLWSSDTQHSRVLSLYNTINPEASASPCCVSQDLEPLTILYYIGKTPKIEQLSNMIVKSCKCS

mature human TGF-beta 3 [3] = target: T2, mature human TGF-beta 3 (human, UniProt P10600 301-412); assay: cell-based or functional assay
T2 sequence: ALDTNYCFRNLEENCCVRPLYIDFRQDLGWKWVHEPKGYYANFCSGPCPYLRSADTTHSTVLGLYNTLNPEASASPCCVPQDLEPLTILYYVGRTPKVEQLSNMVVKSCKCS

mature human TGF-beta 2 [4] = target: T1, mature human TGF-beta 2; assay: SPR Biacore T200, human TGF-beta amine-coupled (~20 RU), E. coli derived Fab as analyte; heterogeneous fit, component 2 (ka2; believed unoccluded)
Method: (§1) Human TGF-β isoforms 1, 2, and 3 (Peprotech) were immobilised on CMS Series S chip via amine coupling chemistry on Flowcell 2, 3 and 4 (respectively) to a level of approximately 20 RU. HBS-EP buffer (10 mM HEPES pH 7.4, 0.15 M NaCl, 3 mM EDTA, 0.05% Surfactant P20, GE Healthcare) was used as the running buffer. […] The surface was regenerated by 2×10 μL injection of 10 mM HCl at a flowrate of 10 uL/min.
(§2) Background subtraction binding curves were analysed using the T200 evaluation software (version 1.0; GE Healthcare) following standard procedures. Kinetic parameters were determined using heterogeneous fitting algorithm with RI=0), as described in Example 3, and the values are provided in Table 4.

mature human TGF-beta 3 [5] = target: T2, mature human TGF-beta 3; assay: as above
Method: as §1, §2

Chain of mature human TGF-beta 1 (P01137 279-390 limits assumed): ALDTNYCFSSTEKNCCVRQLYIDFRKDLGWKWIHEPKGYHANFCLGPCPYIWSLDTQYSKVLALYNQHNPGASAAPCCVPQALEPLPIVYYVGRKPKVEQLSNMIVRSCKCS

B1: humanised antibody 4856 Fab graft gL3gH13 (Fab, V domains shown)
VH: EVQLVESGGGLVKPGGSLRLSCAASGFSLSSYDMSWVRQAPGKGLEWIGIIYGGSGSTWYASWAKGRFTISRDSAKNSVYLQMNSLRAEDTAVYYCARGRDAGAGGSRNGYSLWGQGTLVTVSS
VL: AYDMTQSPSTLSASVGDRVTITCQASESIYSGLAWYQQKPGKAPKLLIYAASDLASGVPSRFSGSGSGTEYTLTISSLQPDDFATYYCQQTWTDGGIDNPFGGGTKVEIKR
notes: Human gamma-1 CH1 (G1m17) and human C-kappa (K1m3); also called 4856gL3gH13
- Geo Mean IC50, Collagen I &III deposition, RPTEC and HRF co-culture [1]: 32.8 nM
- Geo Mean IC50, Collagen V deposition, RPTEC and HRF co-culture [1]: 56.3 nM
- Geo Mean IC50, Fibronectin deposition, RPTEC and HRF co-culture [1]: 29.7 nM
- IC50 (N = 1), Collagen I &III deposition, RPTEC and HRF co-culture [1]: 22.4 nM
- IC50 (N = 1), Collagen V deposition, RPTEC and HRF co-culture [1]: 38.9 nM
- IC50 (N = 1), Fibronectin deposition, RPTEC and HRF co-culture [1]: 32.6 nM
- IC50 (N = 2), Collagen I &III deposition, RPTEC and HRF co-culture [1]: 48 nM
- IC50 (N = 2), Collagen V deposition, RPTEC and HRF co-culture [1]: 81.6 nM
- IC50 (N = 2), Fibronectin deposition, RPTEC and HRF co-culture [1]: 27.1 nM
- Geo Mean IC50, Collagen I &III deposition, RPTEC mono-culture + TGFB1 (mature human TGF-beta 1): 11.2 nM
- Geo Mean IC50, Collagen V deposition, RPTEC mono-culture + TGFB1 (mature human TGF-beta 1): 43.7 nM
- Geo Mean IC50, Fibronectin deposition, RPTEC mono-culture + TGFB1 (mature human TGF-beta 1): 19.2 nM
- IC50 (N = 1), Collagen I &III deposition, RPTEC mono-culture + TGFB1 (mature human TGF-beta 1): 5.1 nM
- IC50 (N = 1), Collagen V deposition, RPTEC mono-culture + TGFB1 (mature human TGF-beta 1): 13.1 nM
- IC50 (N = 1), Fibronectin deposition, RPTEC mono-culture + TGFB1 (mature human TGF-beta 1): 12.6 nM
- IC50 (N = 2), Collagen I &III deposition, RPTEC mono-culture + TGFB1 (mature human TGF-beta 1): 13.8 nM
- IC50 (N = 2), Collagen V deposition, RPTEC mono-culture + TGFB1 (mature human TGF-beta 1): 92.1 nM
- IC50 (N = 2), Fibronectin deposition, RPTEC mono-culture + TGFB1 (mature human TGF-beta 1): 57.4 nM
- IC50 (N = 3), Collagen I &III deposition, RPTEC mono-culture + TGFB1 (mature human TGF-beta 1): 19.8 nM
- IC50 (N = 3), Collagen V deposition, RPTEC mono-culture + TGFB1 (mature human TGF-beta 1): 69.4 nM
- IC50 (N = 3), Fibronectin deposition, RPTEC mono-culture + TGFB1 (mature human TGF-beta 1): 9.8 nM
- Geo Mean IC50, Collagen I &III deposition, RPTEC mono-culture + TGFB2 (mature human TGF-beta 2 [2]): 0.3 nM
- Geo Mean IC50, Collagen V deposition, RPTEC mono-culture + TGFB2 (mature human TGF-beta 2 [2]): 3.1 nM
- Geo Mean IC50, Fibronectin deposition, RPTEC mono-culture + TGFB2 (mature human TGF-beta 2 [2]): 0.3 nM
- IC50 (N = 1), Collagen I &III deposition, RPTEC mono-culture + TGFB2 (mature human TGF-beta 2 [2]): < 2 nM
- IC50 (N = 1), Collagen V deposition, RPTEC mono-culture + TGFB2 (mature human TGF-beta 2 [2]): 0.52 nM
- IC50 (N = 1), Fibronectin deposition, RPTEC mono-culture + TGFB2 (mature human TGF-beta 2 [2]): 0.16 nM
- IC50 (N = 2), Collagen I &III deposition, RPTEC mono-culture + TGFB2 (mature human TGF-beta 2 [2]): 0.6 nM
- IC50 (N = 2), Collagen V deposition, RPTEC mono-culture + TGFB2 (mature human TGF-beta 2 [2]): 10.5 nM
- IC50 (N = 2), Fibronectin deposition, RPTEC mono-culture + TGFB2 (mature human TGF-beta 2 [2]): 0.76 nM
- IC50 (N = 3), Collagen I &III deposition, RPTEC mono-culture + TGFB2 (mature human TGF-beta 2 [2]): 0.13 nM
- IC50 (N = 3), Collagen V deposition, RPTEC mono-culture + TGFB2 (mature human TGF-beta 2 [2]): 5.29 nM
- IC50 (N = 3), Fibronectin deposition, RPTEC mono-culture + TGFB2 (mature human TGF-beta 2 [2]): 0.22 nM
- Geo Mean IC50, Collagen I &III deposition, RPTEC mono-culture + TGFB3 (mature human TGF-beta 3 [3]): 81.2 nM
- Geo Mean IC50, Collagen V deposition, RPTEC mono-culture + TGFB3 (mature human TGF-beta 3 [3]): 191 nM
- Geo Mean IC50, Fibronectin deposition, RPTEC mono-culture + TGFB3 (mature human TGF-beta 3 [3]): 82.1 nM
- IC50 (N = 1), Collagen I &III deposition, RPTEC mono-culture + TGFB3 (mature human TGF-beta 3 [3]): 64.3 nM
- IC50 (N = 1), Collagen V deposition, RPTEC mono-culture + TGFB3 (mature human TGF-beta 3 [3]): 141 nM
- IC50 (N = 1), Fibronectin deposition, RPTEC mono-culture + TGFB3 (mature human TGF-beta 3 [3]): 51.5 nM
- IC50 (N = 2), Collagen I &III deposition, RPTEC mono-culture + TGFB3 (mature human TGF-beta 3 [3]): 124 nM
- IC50 (N = 2), Collagen V deposition, RPTEC mono-culture + TGFB3 (mature human TGF-beta 3 [3]): 336 nM
- IC50 (N = 2), Fibronectin deposition, RPTEC mono-culture + TGFB3 (mature human TGF-beta 3 [3]): 140 nM
- IC50 (N = 3), Collagen I &III deposition, RPTEC mono-culture + TGFB3 (mature human TGF-beta 3 [3]): 67.2 nM
- IC50 (N = 3), Collagen V deposition, RPTEC mono-culture + TGFB3 (mature human TGF-beta 3 [3]): 147 nM
- IC50 (N = 3), Fibronectin deposition, RPTEC mono-culture + TGFB3 (mature human TGF-beta 3 [3]): 76.8 nM
- kon (mature human TGF-beta 2 [4]): 904000 M⁻¹ s⁻¹
- kon (mature human TGF-beta 3 [5]): 2e+06 M⁻¹ s⁻¹
